# Assay results as given in US20210238262A1.
# Target: ZIKV PR (Puerto Rican strain, PRVABC59) virus (Zika virus strain PRVABC59)
# Test: cell-based or functional assay
substance,measurement,value
Z004 (antibody),"micro-neutralization (MN50) in Vero cells, IC50",1.4 ng/mL
